Measurements taken from IntAct's records for PubMed 24332715.

B1: Internalin C (Listeria monocytogenes serotype 1/2a), P71451 (parent)
chain: MLKKNNWLQNAVIAMLVLIVGLCINMGSGTKVQAESIQRPTPINQVFPDPGLANAVKQNLGKQSVTDLVSQKELSGVQNFNGDNSNIQSLAGMQFFTNLKELHLSHNQISDLSPLKDLTKLEELSVNRNRLKNLNGIPSACLSRLFLDNNELRDTDSLIHLKNLEILSIRNNKLKSIVMLGFLSKLEVLDLHGNEITNTGGLTRLKKVNWIDLTGQKCVNEPVKYQPELYITNTVKDPDGRWISPYYISNGGSYVDGCVLWELPVYTDEVSYKFSEYINVGETEAIFDGTVTQPIKN
B2: Dynamin-binding protein (Homo sapiens), Q6XZF7-1 (parent)
chain: MEAGSVVRAIFDFCPSVSEELPLFVGDIIEVLAVVDEFWLLGKKEDVTGQFPSSFVEIVTIPSLKEGERLFVCICEFTSQELDNLPLHRGDLVILDGIPTAGWLQGRSCWGARGFFPSSCVRELCLSSQSRQWHSQSALFQIPEYSMGQARALMGLSAQLDEELDFREGDVITIIGVPEPGWFEGELEGRRGIFPEGFVELLGPLRTVDESVSSGNQDDCIVNGEVDTPVGEEEIGPDEDEEEPGTYGVALYRFQALEPNELDFEVGDKIRILATLEDGWLEGSLKGRTGIFPYRFVKLCPDTRVEETMALPQEGSLARIPETSLDCLENTLGVEEQRHETSDHEAEEPDCIISEAPTSPLGHLTSEYDTDRNSYQDEDTAGGPPRSPGVEWEMPLATDSPTSDPTEVVNGISSQPQVPFHPNLQKSQYYSTVGGSHPHSEQYPDLLPLEARTRDYASLPPKRMYSQLKTLQKPVLPLYRGSSVSASRVVKPRQSSPQLHNLASYTKKHHTSSVYSISERLEMKPGPQAQGLVMEAATHSQGDGSTDLDSKLTQQLIEFEKSLAGPGTEPDKILRHFSIMDFNSEKDIVRGSSKLITEQELPERRKALRPPPPRPCTPVSTSPHLLVDQNLKPAPPLVVRPSRPAPLPPSAQQRTNAVSPKLLSRHRPTCETLEKEGPGHMGRSLDQTSPCPLVLVRIEEMERDLDMYSRAQEELNLMLEEKQDESSRAETLEDLKFCESNIESLNMELQQLREMTLLSSQSSSLVAPSGSVSAENPEQRMLEKRAKVIEELLQTERDYIRDLEMCIERIMVPMQQAQVPNIDFEGLFGNMQMVIKVSKQLLAALEISDAVGPVFLGHRDELEGTYKIYCQNHDEAIALLEIYEKDEKIQKHLQDSLADLKSLYNEWGCTNYINLGSFLIKPVQRVMRYPLLLMELLNSTPESHPDKVPLTNAVLAVKEINVNINEYKRRKDLVLKYRKGDEDSLMEKISKLNIHSIIKKSNRVSSHLKHLTGFAPQIKDEVFEETEKNFRMQERLIKSFIRDLSLYLQHIRESACVKVVAAVSMWDVCMERGHRDLEQFERVHRYISDQLFTNFKERTERLVISPLNQLLSMFTGPHKLVQKRFDKLLDFYNCTERAEKLKDKKTLEELQSARNNYEALNAQLLDELPKFHQYAQGLFTNCVHGYAEAHCDFVHQALEQLKPLLSLLKVAGREGNLIAIFHEEHSRVLQQLQVFTFFPESLPATKKPFERKTIDRQSARKPLLGLPSYMLQSEELRASLLARYPPEKLFQAERNFNAAQDLDVSLLEGDLVGVIKKKDPMGSQNRWLIDNGVTKGFVYSSFLKPYNPRRSHSDASVGSHSSTESEHGSSSPRFPRQNSGSTLTFNPSSMAVSFTSGSCQKQPQDASPPPKECDQGTLSASLNPSNSESSPSRCPSDPDSTSQPRSGDSADVARDVKQPTATPRSYRNFRHPEIVGYSVPGRNGQSQDLVKGCARTAQAPEDRSTEPDGSEAEGNQVYFAVYTFKARNPNELSVSANQKLKILEFKDVTGNTEWWLAEVNGKKGYVPSNYIRKTEYT

Variants of: B1
Settings: with DNMBP
For F146A, the “effect of a mutation on the interaction” value was “decreasing interaction strength”.

Variants of: B2
Settings: with inlc_lismg inlC
For N1569R, the “effect of a mutation on the interaction” value was “decreasing interaction strength”. With V1521R the “effect of a mutation on the interaction” value was “decreasing interaction strength”.
